Three substances from EP3717020B1 can be followed below.

For the test, the target named is endogenous RAS proteins in HeLa cells. Kind of test: cell-based or functional assay.

On to RRSP-APD-Δdta-dtB (enzyme), for which the EC50 of loss of RAS proteins in HeLa cells (anti-RAS immunoblot) is 1 pM and the potency of RAS loss in HeLa cells against RRSP-dta-dtB came to 300 fold.

Substance RRSP-dta-dtB (enzyme) registered an EC50 of loss of total RAS proteins in HeLa cells (24 h, anti-RAS immunoblot) of 250 pM.

For the substance RRSP-Δdta-dtB (enzyme), the EC50 of loss of RAS proteins in HeLa cells (anti-RAS immunoblot) turned out to be 1 pM and the potency of RAS loss in HeLa cells against RRSP-dta-dtB is 300 fold.
